Target: EF-Tu (GTP form) (Escherichia coli K12 MG1655, UniProt P0CE47 1-394)
Experiment: EMSA; GTP; L-Gln-tRNA; Native PAGE EMSA; EF-Tu preincubated with GTP, phosphoenol pyruvate and pyruvate kinase, 20 µl reactions, 3'-32P aminoacyl-tRNA; buffer, salt, pH and temperature not in the material
Conditions: protein: recombinant; tags: StrepTag or TwinStrep-Tag; label: 3' 32P; tRNA cloverleaf

EF-Tu (GTP form), sequence (P0CE47 whole entry): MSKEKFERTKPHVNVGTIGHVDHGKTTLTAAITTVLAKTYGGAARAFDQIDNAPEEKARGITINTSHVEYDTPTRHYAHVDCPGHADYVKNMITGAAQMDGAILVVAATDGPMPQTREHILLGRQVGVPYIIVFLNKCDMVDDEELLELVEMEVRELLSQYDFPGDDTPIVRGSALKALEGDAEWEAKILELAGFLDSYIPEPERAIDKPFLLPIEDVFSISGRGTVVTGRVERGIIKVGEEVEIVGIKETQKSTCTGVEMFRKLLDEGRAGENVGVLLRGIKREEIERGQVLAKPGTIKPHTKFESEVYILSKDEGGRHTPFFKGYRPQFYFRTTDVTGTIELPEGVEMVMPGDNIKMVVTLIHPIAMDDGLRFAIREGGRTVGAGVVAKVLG

B1: tRNAGly tp (structured_RNA)
RNA: GCGGGCGUAGUUCAAUGGUAGAACGAGAGCUUCCCAAGCUCUAUACGAAGGUUCGAUUCCUUCCGCCCGCUCCA
modifications: 3'-aminoacyl as per row
binding result: binds

— publication PMC4499158, “Outwitting EF-Tu and the ribosome: translation with d-amino acids”
